Data: article PMC10928576, “Cpne7 deficiency induces cellular senescence and premature aging of dental pulp” (Aging Cell, 2023)

Key:
[1] = tested on: adipogenic stem cells (ADSCs); assay: Mouse subcutaneous ex vivo transplantation (HA/TCP, PCL), ADSCs; format: in vivo, immunocompromised mice; conditions: adipose stem cells, rCPNE7 treatment
Procedure: (§1) The hDPCs, ADSCs, BMSCs, GFs, and PDLSCs (2 × 10^6) were mixed with 100 mg of hydroxyapatite/tricalcium phosphate ceramic powder (Zimmer) alone or with rCPNE7 (100 ng/mL) in an 0.5% fibrin gel. The poly ε‐caprolactone (PCL: Mw 80,000, Sigma–Aldrich, Oakville, ON, Canada) was wrapped around the mixed cells and transplanted subcutaneously into immunocompromised mice (NIHbg‐nu‐xid; Harlan Laboratories) for 6 weeks (n = 3, each group).

[2] = tested on: dentinal damage sites; conditions: treated onto dentinal damage sites; ref Lee et al., [2020]; cited from earlier work
Text: However, little is known about how odontoblasts age and survive through the days beyond entering dormancy, which actually comprise the major part of their life span. Aging is defined as a gradual loss of physiologic tissue integrity and impaired function, ultimately leading to cell death. Aged pulp is characterized by lower cell population, pulp stem cell tiredness, and, overall, reduced responsiveness to external stimuli (Bernick & Nedelman, [1975]). It has been reported that one of the survival mechanisms of aging odontoblasts is autophagy, which involves degradation and turnover of cellular ...

[3] = tested on: hDPCs; assay: γ-H2AX immunofluorescence in hDPCs; format: cell-based, human; conditions: rCPNE7 after 30 min of 1 mM H2O2, vs H2O2 only
Procedure: Human DPCs and tissue sections were treated with phosphate‐buffered saline (PBS) and 0.5% Triton X‐100 for permeabilization. After washing and blocking, cells and tissue samples were incubated overnight at 4°C with γ‐H2AX (1:100, Cell Signaling Technology, #9718) and CPNE7 (1:100) in blocking buffer (PBS and 2% bovine serum albumin). Subsequently, FITC‐conjugated anti‐rabbit secondary antibody (1:500) or Cy3‐conjugated anti‐rabbit (1:500) was applied. Cells were visualized using confocal microscopy (LSM980, Zeiss, Germany). The chromosomal DNA in the nucleus was stained with 4′,6‐diamidino‐2‐phenylindole (DAPI). The microtubules were detected using α‐TUBULIN antibodies (1:1000; Santa Cruz), and F‐ACTIN was stained with Alexa Fluor 488 or rhodamine‐conjugated phalloidin (Invitrogen). Flag‐tagged rCPNE7 was detected using Flag‐antibodies (1:500; Sigma–Aldrich), and TAU was detected by TAU antibodies (1:100; CUSABIO). Immunofluorescence staining of TAU, F‐ACTIN, and α‐TUBULIN was analyzed using the IMARIS cell imaging software (Bitplane) (n = 3, each group).

[4] = tested on: hDPCs
[5] = tested on: hDPCs; assay: Live-cell imaging of intracellular ROS (DCFDA); format: cell-based, human; conditions: rCPNE7 treatment 15 min after H2O2 treatment, n = 3
Procedure: Human DPCs were stained with DCFDA‐cellular ROS assay kit (Abcam, ab113851) for 40 min at 37°C in a humidified environment at 5% CO2. Then, live cell imaging was performed with a filter set appropriate for fluorescein (FITC) (n = 3, each group). Low light conditions were maintained to avoid photobleaching and photo‐oxidation of DCF.

[6] = tested on: hDPCs; assay: RNA-sequencing of rCPNE7-treated hDPCs; format: cell-based, human; conditions: n = 3
Procedure: The isolated RNA (n = 3, each group) was shipped to Macrogen (Seoul, Korea) for the library preparation, sequencing, and analysis of data. The cDNA Library for sequencing was prepared using TruSeq Stranded mRNA LT Sample Prep Kit. Total RNA was randomly fragmented, converted to complementary DNA (cDNA), and amplified according to the manufacturer's protocol. The cDNA was then ligated to sequencing adapters. Sequencing was performed on Illumina's HiSeq2500 platform. HISAT2 was used for mapping trimmed reads to reference genome (UCSC mm10), and the transcript assembly was performed using StringTie. To identify differentially expressed genes (DEGs), the expression profile was calculated for each sample and normalized to FPKM. KEGG database and Gene Ontology were used to perform functional annotation and gene‐set enrichment analysis on DEGs for known gene annotation. Genes with |fc| 1.5 and independent T‐test raw p‐value <0.05 were counted as significant.

[7] = tested on: periodontal ligament stem cells (PDLSCs); assay: Mouse subcutaneous ex vivo transplantation (HA/TCP, PCL), PDLSCs; format: in vivo, immunocompromised mice
Procedure: as §1
(§2) Figure S1. (A) The gingival fibroblasts (GFs) or (B) periodontal ligament stem cells (PDLSCs) were mixed with 100㎎ of hydroxyapatite/tricalcium phosphate (HA) particles alone (control) or with rCPNE7 in a poly ε-caprolactone (PCL) spaces and transplanted subcutaneously into immunocompromised mice for 6 weeks. White arrows indicate newly formed mineralized tissues. Representative immunofluorescence images of DSP (red) were observed (n=3). DAPI (blue) was counterstained to indicate the nucleus. Scale bars: 50㎛.

[8] = tested on: human dental pulp cells (hDPCs); assay: Live-cell imaging of hDPC morphology with or without rCPNE7; format: cell-based; conditions: rCPNE7 100 ng/mL for 24 h, then differentiation media 7 days, vs control, n = 3
Procedure: (§3) The hDPCs were obtained from the Seoul National University Dental Hospital, and the experimental protocol was accepted by the Institutional Review Board of the Seoul National University (S‐D20140007). Informed consent was obtained from patients. Human DPCs were isolated and used in an in vitro experiment as described previously (Jung et al., [2011]). Human DPCs were cultured in minimum essential medium α (Gibco BRL, 12571063) supplemented with 10% heat‐inactivated fetal bovine serum (FBS; Gibco BRL, 16000044) and antibiotic‐antimycotic (Gibco BRL, 15240062) at 37°C in an atmosphere with 5% CO2. The cells were then treated with recombinant CPNE7 protein (rCPNE7, 100 ng/mL; Origene, TP306428) or CPNE7‐derived peptide (CPNE7‐DP, 10 μg/mL). After oxidative stress‐induced DNA damage using Hydrogen Peroxide Solution (H2O2; Merck, H1009) rCPNE7 was treated after replacement with a new culture medium (α‐MEM).
The morphologic change of hDPCs treated with or without rCPNE7 was measured by live‐cell imaging (n = 3, each group). After being treated with rCPNE7 for 24 h, the cells were differentiated for 7 days and scanned for 2 days. Bright‐field images of the cells were acquired using a confocal laser scanning microscopy system (LSM980, Zeiss, Germany). […] Timelapse images collected from a single Z plane were recorded at 8‐min intervals.

[9] = tested on: gingival fibroblasts (GFs); assay: Mouse subcutaneous ex vivo transplantation (HA/TCP, PCL), GFs; format: in vivo, immunocompromised mice
Procedure: as §1, §2

[10] = tested on: hDPCs; assay: Comet assay; format: cell-based, human; conditions: 24 h, 1 mM H2O2 + rCPNE7, vs H2O2 only, n = 3
Procedure: Human DPCs were combined with Comet Agarose (Abcam, ab238544) at 1/10 ratio (v/v), mixed by pipetting, and immediately transferred onto the top of the Comer Agarose Base Layer Slide (Abcam, ab238544). Set horizontally, the slides were incubated at 4°C in the dark for 15 min, and placed in a small basin/container containing pre‐chilled Lysis Buffer (Abcam, ab238544). They were immersed in the buffer for 1 h at 4°C in the dark. After 1 h, aspiration of the Lysis Buffer from the container was done and replaced with a pre‐chilled Alkaline Solution (Abcam, ab238544), followed by electrophoresis chamber filled with the Alkaline Electrophoresis Solution. Voltage was applied to the chamber for 30 min at 1 volt/cm. The slides were then rinsed with pre‐chilled DI H2O and replaced with cold 70% Ethanol for 5 min. The slide was removed from the 70% Ethanol and allowed to air dry. Once the slide was completely dry, staining with Vista Green DNA Dye (Abcam, ab238544) was done at room temperature for 15 min. Cells were visualized using confocal microscopy (LSM980, Zeiss, Germany) (n = 3, each group).

[11] = tested on: hDPCs; assay: Mouse subcutaneous ex vivo transplantation (HA/TCP, PCL), hDPCs; design: species or system human cells in immunocompromised mice; conditions: hDPCs + 100 mg HA/TCP with rCPNE7 100 ng/mL in PCL, 6 weeks, vs control, n = 3
Procedure: as §1

[12] = tested on: hDPCs; assay: γ-H2AX / P21 western blot in H2O2-treated hDPCs; format: cell-based, human; conditions: H2O2 + rCPNE7, after 48 h, vs H2O2 only
Procedure: Cellular proteins (30 μg) were separated by 10% or 15% sodium dodecyl sulfate‐polyacrylamide gel electrophoresis (SDS‐PAGE) and transferred to polyvinylidene fluoride (PVDF) membranes. The PVDF membranes were blocked for 1 h with 5% nonfat dry milk in Tris‐buffered saline containing 0.1% Tween 20 (TBS‐T) and incubated overnight at 4°C with the primary antibody diluted in TBS‐T (1:5000). After washing, membranes were incubated for 1 h with the appropriate secondary antibodies. Labeled protein bands were detected under an enhanced chemiluminescence system (Amersham Biosciences/GE Healthcare). All reactions were performed in triplicate. Semi‐quantitative analyses were performed using Image J software (National Institute of Health, MD, USA) (n = 3, each group).

[13] = tested on: hDPCs; assay: Senescence β-galactosidase (SA-β gal) staining of H2O2-treated hDPCs; format: cell-based, human
Procedure: as §3
Human DPCs were fixated with Fixative Solution (Cell Signaling Technology, #9860) at room temperature for 15 min. Rinsed twice with PBS, the cells were then stained with β‐Galactosidase Staining Solution (Cell Signaling Technology, #9860) at 37°C overnight in a dry incubator (no CO2). Cells were observed using light microscopy (Primovert, Zeiss, Germany) (n = 3, each group).

[14] = tested on: shCpne7-transfected hDPCs; assay: DNA damage rescue model in shCpne7-transfected hDPCs (western blot); format: cell-based, human; conditions: hDPCs treated after shCpne7 transfection; rCPNE7 100 ng/mL or CPNE7-DP 10 μg/mL
Procedure: as §3, with “(α‐MEM). […]” for “(α‐MEM).”
Cellular proteins (30 μg) were separated by 10% or 15% sodium dodecyl sulfate‐polyacrylamide gel electrophoresis (SDS‐PAGE) and transferred to polyvinylidene fluoride (PVDF) membranes. […] Labeled protein bands were detected under an enhanced chemiluminescence system (Amersham Biosciences/GE Healthcare). […] Semi‐quantitative analyses were performed using Image J software (National Institute of Health, MD, USA) (n = 3, each group).

[15] = tested on: bone marrow stem cells (BMSCs); assay: Mouse subcutaneous ex vivo transplantation (HA/TCP, PCL), BMSCs; format: in vivo, immunocompromised mice; conditions: rCPNE7 treatment
Procedure: as §1

B1: rCPNE7: recombinant CPNE7 protein (Origene, TP306428) (protein, UniProt Q9UBL6 1-633, looked up)
Copine-7: MSAGSERGAAATPGGLPAPCASKVELRLSCRHLLDRDPLTKSDPSVALLQQAQGQWVQVGRTEVVRSSLHPVFSKVFTVDYYFEEVQRLRFEVYDTHGPSGFSCQEDDFLGGMECTLGQPAQKWLLQVVMRVSVDVLGPAGHCAKHFLCCTESSHLARTGPSFLLRYDDLCLPWATAGAVRWWTCRGGHTQGWQIVAQKKVTRPLLLKFGRNAGKSTITVIAEDISGNNGYVELSFRARKLDDKDLFSKSDPFLELYRVNDDQGLQLVYRTEVVKNNLNPVWEAFKVSLSSLCSCEETRPLKCLVWDYDSRGKHDFIGEFSTTFEEMQKAFEEGQAQWDCVNPKYKQKRRSYKNSGVVVLADLKFHRVYSFLDYIMGGCQIHFTVAIDFTASNGDPRNSCSLHYINPYQPNEYLKALVSVGEICQDYDSDKRFSALGFGARIPPKYEVSHDFAINFNPEDDECEGIQGVVEAYQNCLPRVQLYGPTNVAPIISKVARVAAAEESTGKASQYYILLILTDGVVTDMADTREAIVRASRLPMSIIIVGVGNADFTDMQVLDGDDGVLRSPRGEPALRDIVQFVPFRELKNASPAALAKCVLAEVPKQVVEYYSHRGLPPRSLGVPAGEASPGCTP
odontoblastic differentiation upon treatment [1]: did not undergo odontoblastic differentiation | dentin formation at dentinal damage sites [2]: tertiary dentin formation of tubular nature | accumulation of DNA damage (γ-H2AX immunofluorescence) [3]: rarely observed | cell viability (WST-8) ([4]; rCPNE7 after 30 min treatment of 1 mM or 2 mM H2O2, 48 h, vs H2O2 only): cell viability was higher | cell-to-cell contact (light microscopy) ([4]; rCPNE7 after 30 min treatment of H2O2, vs H2O2 only): more organized | intracellular ROS level (DCFDA fluorescence) [5]: gradually decreased back to the normal level | mRNA expression levels of histone and chromatin-related genes [6]: significantly increased | amount of newly formed DSP-positive mineralized tissue ([7]; PDLSCs + HA/TCP with rCPNE7 in PCL spaces, 6 weeks, vs control, n = 3): slightly greater amount | odontoblastic differentiation upon treatment ([7]; PDLSCs, rCPNE7 treatment): did not undergo odontoblastic differentiation | cellular process morphology [8]: elongation of a uni‐directional cellular process was observed | amount of newly formed DSP-positive mineralized tissue ([9]; GFs + HA/TCP with rCPNE7 in PCL spaces, 6 weeks, vs control, n = 3): slightly greater amount | odontoblastic differentiation upon treatment ([9]; GFs, rCPNE7 treatment): did not undergo odontoblastic differentiation | length of comet tail (fragmented DNA) [10]: much shorter | odontoblast-like differentiation and dentin-like tissue-forming capacity ex vivo [11]: enhanced odontoblast‐like differentiation and dentin‐like tissue‐forming capacity | protein expression level of γ-H2AX (western blot) [12]: hardly detected | progress of cellular senescence (SA-β gal) ([13]; hDPCs in growth media containing rCPNE7 for 72 h after oxidative stress (1 mM H2O2) for an hour, vs control): progressed more slowly than the control | number of SA-β gal-positive dental pulp cells ([13]; hDPCs passage 3, 1 mM H2O2 + rCPNE7, an hour later, vs H2O2 only, n = 3): significantly decreased | expression level of γ-H2AX (western blot) [14]: evidently diminished | odontoblastic differentiation upon treatment [15]: did not undergo odontoblastic differentiation
